B1: Pistol ribozyme (parent)
chain: GGGUCGUUGUUCCAUAAUCGCGUGGAUAUGGCACGCAAGUUUCUACCGGGCACCGUAAAUGUCCGACUGGAGCCGUUCGGGCGGCUAUAAACAGACCUCAGGCCCGAAGCGUGGCGGCACCUGCCGCCGGUGGUAAAAAAGAUCGGAAGAGCACACGUCU

Variants of: B1
Assay: aptazyme ON/OFF ratio, guanine; higher = stronger switching; co-transcriptional cleavage with and without guanine

Row | Variant | aptazyme ON/OFF ratio
1 | U7G U8C G9C U10A U11C C13U | 1.25
2 | U7G U8C G9C U10A U11C C13G | 1.26
3 | U7G U8C G9C U10A U11C C13A | 1.41
4 | U7G U8C G9C U10C U11A C12G C13G | 1.17
5 | U7G U8C G9C U10C U11A C12G C13A | 1.2
6 | U7G U8C G9C U10C U11A C12G C13U | 1.12
7 | U7G U8C G9A U10C U11G C12A C13G | 1.08
8 | U7G U8C G9A U10C U11G C12A C13U | 1.16
9 | U7G U8C G9C U10C U11A C12U | 1.06
10 | U7G U8C G9C U10C U11A C12A | 1.06
11 | U7G U8C G9C U10C U11A C12G | 1.11
12 | U7G U8C G9C U10C U11C | 1.05
13 | U7G U8C G9C U10C U11G | 1.05
14 | U7G U8C G9C U10C U11A | 1.39
15 | U7G U8C G9C U10C U11G C12A C13A | 1.19
16 | U7G U8C G9C U10C U11G C12A C13G | 1.09
17 | U7G U8C G9C U10C U11G C12A C13U | 1.1
18 | U7G U8C G9A U10G U11C C12G C13A | 1.14
19 | U7G U8C G9A U10G U11C C12G C13U | 1.18
20 | U7G U8C G9A U10G U11C C12G C13G | 1.02
21 | U7G U8C G9C U10A U11A C12U C13U | 1.08

Row | Variant | aptazyme ON/OFF ratio
22 | U7G U8C G9C U10A U11A C12U C13G | 1.09
23 | U7G U8C G9C U10A U11A C12U C13A | 1.07
24 | U7G U8C G9C U10A U11A C12A | 1.19
25 | U7G U8C G9C U10A U11A C12U | 1.16
26 | U7G U8C G9C U10A U11A C12G | 1.19
27 | U7G U8C G9C U10G U11A C13G | 1.19
28 | U7G U8C G9C U10G U11A C13A | 1.05
29 | U7G U8C G9C U10G U11A C13U | 1.05
30 | U7G U8C G9C U10G U11G C12A | 1.17
31 | U7G U8C G9C U10G U11G C12U | 1.06
32 | U7G U8C G9C U10G U11G C12G | 1.13
33 | U7G U8C G9C U10G U11C C12G | 1.21
34 | U7G U8C G9C U10G U11C C12A | 1.36
35 | U7G U8C G9C U10G U11C C12U | 1.12
36 | U7G U8C G9C U10A U11A C12G C13G | 1.11
37 | U7G U8C G9C U10A U11A C12G C13U | 1.13
38 | U7G U8C G9C U10A U11A C12G C13A | 1.1
39 | U7G U8C G9C U10C U11C C12A | 1.05
40 | U7G U8C G9C U10C U11C C12G | 1.06
41 | U7G U8C G9C U10C U11C C12U | 1.02
42 | U7G U8C G9A U10G U11C | 1.04

Row | Variant | aptazyme ON/OFF ratio
43 | U7G U8C G9A U10G U11G | 1.77
44 | U7G U8C G9A U10G U11A | 1.07
45 | U7G U8C G9A U10C U11G C12U C13U | 1.18
46 | U7G U8C G9A U10C U11G C12U C13A | 1.26
47 | U7G U8C G9A U10C U11G C12U C13G | 1.22
48 | U7G U8C G9A U11G C12G C13U | 1.05
49 | U7G U8C G9A U11G C12G C13A | 1.07
50 | U7G U8C G9A U11G C12G C13G | 1.08
51 | U7G U8C G9C U10C C12G C13A | 1.14
52 | U7G U8C G9C U10C C12G C13G | 1.11
53 | U7G U8C G9C U10C C12G C13U | 1.08
54 | U7G U8C G9A U10C U11G C12G C13A | 1.08
55 | U7G U8C G9A U10C U11G C12G C13U | 1.05
56 | U7G U8C G9A U10C U11G C12G C13G | 1.08
57 | U7G U8C G9C U10G U11G C13A | 1.1
58 | U7G U8C G9C U10G U11G C13U | 1.06
59 | U7G U8C G9C U10G U11G C13G | 1.12
60 | U7G U8C G9C U10G U11C C13G | 1.36
61 | U7G U8C G9C U10G U11C C13U | 1.34
62 | U7G U8C G9C U10G U11C C13A | 1.15
63 | U7G U8C G9A U11G C12U | 1.3

Row | Variant | aptazyme ON/OFF ratio
64 | U7G U8C G9A U11G C12G | 1.14
65 | U7G U8C G9A U11G C12A | 1.1
66 | U7G U8C G9C U10A U11C C12A C13U | 1.27
67 | U7G U8C G9C U10A U11C C12A C13A | 1.28
68 | U7G U8C G9C U10A U11C C12A C13G | 1.19
69 | U7G U8C G9C U10G C12U C13U | 1.14
70 | U7G U8C G9C U10G C12U C13A | 1.11
71 | U7G U8C G9C U10G C12U C13G | 1.08
72 | U7G U8C G9C U10G U11G | 1.17
73 | U7G U8C G9C U10G U11A | 1.11
74 | U7G U8C G9C U10G U11C | 1.15
75 | U7G U8C G9C U10A U11G C12U C13G | 1.24
76 | U7G U8C G9C U10A U11G C12U C13A | 1.22
77 | U7G U8C G9C U10A U11G C12U C13U | 1.17
78 | U7G U8C G9A U10C U11G C13A | 1.16
79 | U7G U8C G9A U10C U11G C13G | 1.27
80 | U7G U8C G9A U10C U11G C13U | 1.24
81 | U7G U8C G9C U10G U11G C12G C13G | 1.08
82 | U7G U8C G9C U10G U11G C12G C13U | 1.09
83 | U7G U8C G9C U10G U11G C12G C13A | 1.06
